B1: recombinant Naglu-IGFII fusion protein (enzyme)
chain: DEAREAAAVRALVARLLGPGPAADFSVSVERALAAKPGLDTYSLGGGGAARVRVRGSTGVAAAAGLHRYLRDFCGCHVAWSGSQLRLPRPLPAVPGELTEATPNRYRYYQNVCTQSYSFVWWDWARWEREIDWMALNGINLALAWSGQEAIWQRVYLALGLTQAEINEFFTGPAFLAWGRMGNLHTWDGPLPPSWHIKQLYLQHRVLDQMRSFGMTPVLPAFAGHVPEAVTRVFPQVNVTKMGSWGHFNCSYSCSFLLAPEDPIFPIIGSLFLRELIKEFGTDHIYGADTFNEMQPPSSEPSYLAAATTAVYEAMTAVDTEAVWLLQGWLFQHQPQFWGPAQIRAVLGAVPRGRLLVLDLFAESQPVYTRTASFQGQPFIWCMLHNFGGNHGLFGALEAVNGGPEAARLFPNSTMVGTGMAPEGISQNEVVYSLMAELGWRKDPVPDLAAWVTSFAARRYGVSHPDAGAAWRLLLRSVYNCSGEACRGHNRSPLVRRPSLQMNTSIWYNRSDVFEAWRLLLTSAPSLATSPAFRYDLLDLTRQAVQELVSLYYEEARSAYLSKELASLLRAGGVLAYELLPALDEVLASDSRFLLGSWLEQARAAAVSEAEADFYEQNSRYQLTLWGPEGNILDYANKQLAGLVANYYTPRWRLFLEALVDSVAQGIPFQQHQFDKNVFQLEQAFVLSKQRYPSQPRGDTVDLAKKIFLKYYPRWVAGSWGAPGGGGGAAAAAGGGGGGAPGGGGGAAAAAGGGGGGAPGGGGGAAAAAGGGGGGAPLCGGELVDTLQFVCGDRGFYFSRPASRVSRRSRGIVEECCFRSCDLALLETYCATPAKSE
modifications: glycosylated; negative for M6P glycosylation
notes: Secreted from HT1080 cells
B2: Naglu-Kif (enzyme)
chain: DEAREAAAVRALVARLLGPGPAADFSVSVERALAAKPGLDTYSLGGGGAARVRVRGSTGVAAAAGLHRYLRDFCGCHVAWSGSQLRLPRPLPAVPGELTEATPNRYRYYQNVCTQSYSFVWWDWARWEREIDWMALNGINLALAWSGQEAIWQRVYLALGLTQAEINEFFTGPAFLAWGRMGNLHTWDGPLPPSWHIKQLYLQHRVLDQMRSFGMTPVLPAFAGHVPEAVTRVFPQVNVTKMGSWGHFNCSYSCSFLLAPEDPIFPIIGSLFLRELIKEFGTDHIYGADTFNEMQPPSSEPSYLAAATTAVYEAMTAVDTEAVWLLQGWLFQHQPQFWGPAQIRAVLGAVPRGRLLVLDLFAESQPVYTRTASFQGQPFIWCMLHNFGGNHGLFGALEAVNGGPEAARLFPNSTMVGTGMAPEGISQNEVVYSLMAELGWRKDPVPDLAAWVTSFAARRYGVSHPDAGAAWRLLLRSVYNCSGEACRGHNRSPLVRRPSLQMNTSIWYNRSDVFEAWRLLLTSAPSLATSPAFRYDLLDLTRQAVQELVSLYYEEARSAYLSKELASLLRAGGVLAYELLPALDEVLASDSRFLLGSWLEQARAAAVSEAEADFYEQNSRYQLTLWGPEGNILDYANKQLAGLVANYYTPRWRLFLEALVDSVAQGIPFQQHQFDKNVFQLEQAFVLSKQRYPSQPRGDTVDLAKKIFLKYYPRWVAGSW
modifications: mostly high mannose glycans (produced with Kifunensine in the medium); N-glycans at N261, N272, N435, N503, N526 and N532 (precursor numbering)
notes: This is the protein that was crystallised (2.4 A)
B3: recombinant human Naglu (enzyme)
chain: B2 chain
modifications: glycosylated; lacks mannose-6-phosphate glycan
notes: also called rhNaglu; alpha-N-acetyl-glucosaminidase

Assays:
[1] = target: the molecule itself; assay: SEC-MALS and analytical ultracentrifugation; self-association (homotrimer)
[2] = target: the molecule itself; assay: X-ray crystal structure; self-association (homotrimer)
Method: The crystals (FIG. 8) were obtained from rhNaglu protein purified from culture media treated with mannosidase-I inhibitor, Kifunensine. Naglu Kif contains identical protein sequences as rhNaglu, but different glycosylation pattern. The crystals acquired of Naglu Kif were grown at pH=7.5 and the structure of Naglu Kif was solved at 2.4 Å resolution by X-ray crystallography. Naglu structure (FIG. 9) is identified as having three distinct domains, a N-terminal domain (Domain-I, aa 24-126) followed by a (a/(3)8 barrel domain containing the catalytic glutamates (Domain-II, aa 127-467) and an all helical C-terminal domain (Domain-III, aa 468-743). Similar domain structure has been observed for another Glycoside Hydrolase family-89 protein, cpGH89, a bacterial homolog of Naglu (Ficko-Blean E, et al., PNAS May 6, 2008 vol. 105 no. 18 6560-6565). The active site is at a cleft between domains II and III and the catalytic residues are identified as E316 and E446 located on domain II.

Protein	binding result [1]	binding result [2]
B1	binds	
B2		binds
B3	binds	
